The record followed here is the nanobody polyreactivity screen of Harvey et al. (2022).

This series can be described thus: yeast display, Sf9 membrane polyspecificity reagent, FACS + sequencing; frameworks hold sequencing errors. The method, boiled down: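 A nanobody's polyreactivity label depends on the gate it was sorted from. Yeast display cells were stained with 10% biotinylated, detergent-solubilized Sf9 membrane reagent for 1 hour at 4 °C, enriched on streptavidin microbeads and sorted by FACS. The low and high (top ~1%) gates were set on anti-HA fluorescence for expression and streptavidin fluorescence for reagent binding.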
As to “QVQLVESGGGLVQAGGSLRLSCAASGSTFGGYAMGWYRQAPGKERELVAGITISVGSTYYADSVKGRFTISRDNAKNTVYLQMNSLKPEDTAVYYCAADGLSWYNYWGQGTQVTVSS”, the “polyreactivity (PSR sort gate)” value is on record as “high polyreactivity”.

In the case of “QVQLVESGGGLVQAGGSLRLSCAASGSTFGGYVMGWYRQAPGKERELVATITQGDGSTYYADSVKGRFTISRDNAKNTVYLQMNSLKPEDTAVYYCAAYGWYDLYYWEYDYWGQGTQVTVSS”, the “polyreactivity (PSR sort gate)” value is listed as “high polyreactivity”.

Turning to “QVQLVESGGGLVQAGGSLRLSCAASGSTFGHYAMGWYRQAPGKERELVAAISWSGGSTSYADSVKGRFTISRDNAKNTVYLQMNSLKPEDTAVYYCNKRQEWFHFPYTRVYYWGQGTQLTVSS”, the “polyreactivity (PSR sort gate)” value is reported as “low polyreactivity”.

Regarding “QVQLVESGGGLVQAGGSLRLSCAASGSTFGHYAMGWYRQAPGKERELVAAITWSGGSTYYADSVKGRFTISRDNAKNTVYLQMNSLKPEDTAVYYCNAVTRRSAQVGHDYWGQGTQVTVSS”, the “polyreactivity (PSR sort gate)” value is on record as “high polyreactivity”.

Take “QVQLVESGGGLVQAGGSLRLSCAASGSTFGHYAMGWYRQAPGKERELVAGITDTDNHELRRLCEGRFTISRDNAKNTVYLQMTSLKPEDTAVYYCNADDTYYPLGGITGYDYWGQGTQVTVSS”: the “polyreactivity (PSR sort gate)” value is “low polyreactivity”.

For the sequence “QVQLVESGGGLVQAGGSLRLSCAASGSTFGHYAMGWYRQAPGKERELVAGITYTDNHELRRLCEGRFTISRDNAKNTVYLQMNSLKPEDTAVYYCNADDTYYPLGGITGYDYWGQGTQVTVSS”, the “polyreactivity (PSR sort gate)” value is “low polyreactivity”.

Take “QVQLVESGGGLVQAGGSLRLSCAASGSTFGIYAMGWYRPAPGKERELVAAISSGGSTNYADSVKGRFTISRDNAKNTVYLQMNCLKPEDSAVYYCAVESVYEYGGYVDSAYDYWGQGTQVTVSS”: the “polyreactivity (PSR sort gate)” value is “low polyreactivity”.

For “QVQLVESGGGLVQAGGSLRLSCAASGSTFGIYVMGWYRQAPGKERELVATISSSGGRTYYADSVKGRFTISRDNAKNTVYLQMNSLKPEDTAVYYCAADGYIDISPGYYYTYDYWGQGTQVTVSS”, the “polyreactivity (PSR sort gate)” value is “low polyreactivity”.

In the case of “QVQLVESGGGLVQAGGSLRLSCAASGSTFGKNAMGWYRQAPGKERELVAAITRRGGSTNYADSVKGRFTISRDNAKNTVYLQINSLKPEDTAVYYCAASWGRTSSKPFDYWGQGTQVTVSS”, the “polyreactivity (PSR sort gate)” value is reported as “high polyreactivity”.

“QVQLVESGGGLVQAGGSLRLSCAASGSTFGLNALGWYRQAPGKERELVAAISTSGGSTYYADSVKGRFTISRDNAKNTVFLQMNSLNPEDTAVYYCAADVVAGYDYSQYYYWGQGTQVTVSS”: the “polyreactivity (PSR sort gate)” value was “low polyreactivity”.

As for “QVQLVESGGGLVQAGGSLRLSCAASGSTFGLNAMGWYRQAPGKERELVAAISTSGGSTYYADSVKGRFTISRDNAKNTVYLQMNSLKPEDTAVYYCAAEVVAGYDYSQYYYWGQGTQVTVSS”, the “polyreactivity (PSR sort gate)” value is on record as “low polyreactivity”.

For the sequence “QVQLVESGGGLVQAGGSLRLSCAASGSTFGLYAMGWYRQAPGKERELVADITWSGGSTYYADSVKGRFTISRDNAKNTVYLQMNSLKPEDTAVYYCAARYPWVYYDFDYWGQGTQVTVSS”, the “polyreactivity (PSR sort gate)” value is given as “low polyreactivity”.

As to “QVQLVESGGGLVQAGGSLRLSCAASGSTFGNAMGWYTQAPGKEREWVAAISSRGDRTYYADSVKGRFTISRDNAKNTGYLQMNSLKPEDTAVYYCAKDGYPNKYDYWGQGTQVTVSS”, the “polyreactivity (PSR sort gate)” value is recorded as “high polyreactivity”.

“QVQLVESGGGLVQAGGSLRLSCAASGSTFGNNAMGLYRQAPGKERELVASINWNGGSTYYADSVKGRFTISRDNAKITVYLQMNSLKPEDTAVYYCNARLYFVEGQDYYYWGQGTQVTVSS”: the “polyreactivity (PSR sort gate)” value is on record as “low polyreactivity”.

Take “QVQLVESGGGLVQAGGSLRLSCAASGSTFGNNAMGWYRQAPGKERELVASISWSSGRTYYADSVKGRFTISRDNAKNTVYLQMNSLKREDTAVYYCAAPLPVDVVWDRSAEVRYDYWGQGTQVTVSS”: the “polyreactivity (PSR sort gate)” value was “low polyreactivity”.

As to “QVQLVESGGGLVQAGGSLRLSCAASGSTFGPNTMGWYRQAPGKERELVAAITTRGGRTYYADSVKGRFTISRDNAKNTVYLQMNSLKPEDTAVYYCAASAPYYGRGGLVGYWGQGTQVTVSS”, the “polyreactivity (PSR sort gate)” value is “high polyreactivity”.

Turning to “QVQLVESGGGLVQAGGSLRLSCAASGSTFGPYAMGWYRQAPGKERELVATINSSGSTNYADSVKGRFTISRDNAKNTVYLQMNSLKPEDTAVYYCATLHYYYWYDYWGQGTQVTVSS”, the “polyreactivity (PSR sort gate)” value is given as “low polyreactivity”.

Turning to “QVQLVESGGGLVQAGGSLRLSCAASGSTFGQYAMGWYRQAPGKERELVAAISRNGGRTYYADSVKGRFTISRDNAKNTVYLLMNSLKPEDTAVYYCAAGGFLYVYYRGMYYWGQGTQVTVSS”, the “polyreactivity (PSR sort gate)” value is recorded as “high polyreactivity”.

As to “QVQLVESGGGLVQAGGSLRLSCAASGSTFGRNAMGWYRQAPGKERELVAAINWSDGSTHYADSVKGRFTISRDNAKNTVYLQMNSLKPEDTAVYYCAADAWSWPVDYNYWGQGTQVTVSS”, the “polyreactivity (PSR sort gate)” value is “low polyreactivity”.

Take “QVQLVESGGGLVQAGGSLRLSCAASGSTFGRNAMGWYRQAPGKERELVASISRRGGSTYYADSVKGRFTISRDNAKNTVYLQMNSLKPEDTAVYYCNARYYFSDYGYWGQGTQVTVSS”: the “polyreactivity (PSR sort gate)” value is reported as “high polyreactivity”.

In the case of “QVQLVESGGGLVQAGGSLRLSCAASGSTFGRNAMGWYRQAPGKERELVASISWGGGSTYYADSVKVRFTISRDNAKNNVYLQMNSLKPEDTAVYYCAAGLAYWYWRGYDYWGQGTQVTVSS”, the “polyreactivity (PSR sort gate)” value is recorded as “high polyreactivity”.

On to “QVQLVESGGGLVQAGGSLRLSCAASGSTFGRYAMGWYRQAPGKERELVAAISASGGSTYYADSVKGRFTISRDNAKNTVYLLMNSLKPEDTAVYYSAALIDVITGQYDYWGQGTQVTVSS”, for which the “polyreactivity (PSR sort gate)” value is listed as “high polyreactivity”.

Consider “QVQLVESGGGLVQAGGSLRLSCAASGSTFGRYAMGWYRQAPGKERELVAAISPRGGSTYYADSVKGRFTISRDNAKNTVYLQMNSLKPEDTAVYYCATGYPIDLGREFDYWGQGIQVTVSS”, for which the “polyreactivity (PSR sort gate)” value is “high polyreactivity”.

As for “QVQLVESGGGLVQAGGSLRLSCAASGSTFGRYAMGWYRQAPGKERELVAAISWSGGSTHYADSVKGRFTISRDNAKNTVYLQMNSLKPEDTAVYYCAAYTFYSYDYWGQGSQVTVSS”, the “polyreactivity (PSR sort gate)” value is recorded as “high polyreactivity”.

“QVQLVESGGGLVQAGGSLRLSCAASGSTFGRYAMGWYRQAPGKERELVAAITSDTGNTNYADSVKGRFTISRDNAKNTVYLQMNSLKPEDTAVYYCAAATFWVLWGHVIGNYDSWGQGTQVTVSS”: the “polyreactivity (PSR sort gate)” value is on record as “low polyreactivity”.

As to “QVQLVESGGGLVQAGGSLRLSCAASGSTFGRYAMGWYRQAPGKERELVAGISRGGTTYYADSVKGRFTISRDNAKNTVYLQLNSLKPEDTAVYYCAKLRWPVFDYWGQGTQVTVSS”, the “polyreactivity (PSR sort gate)” value is on record as “high polyreactivity”.

For the sequence “QVQLVESGGGLVQAGGSLRLSCAASGSTFGRYAMGWYRQAPGKERELVARISWGGGSTYYADSVKGRFTISRDNAKNTVYLQMNSLKPEDTAVYYCATRVYRSAVSYDYWGQGTQVTVSS”, the “polyreactivity (PSR sort gate)” value is recorded as “high polyreactivity”.

For “QVQLVESGGGLVQAGGSLRLSCAASGSTFGRYVMGWYRQAPGKDRELVAAISKNAGSTYYADSVKGRFTISRDNAKNTVYLQMNSLKPEDTAVYYCAADWRTKGYDSLGQGTQVTVSS”, the “polyreactivity (PSR sort gate)” value is listed as “high polyreactivity”.

Regarding “QVQLVESGGGLVQAGGSLRLSCAASGSTFGSNAMGWYRPAPGKERELVAAITYSGGRTYYADSVKGRFTISRDNAKNTVYLQMNSLKPEDTAVYYCAATFGFFYYQYDYWGQGTQVTVSS”, the “polyreactivity (PSR sort gate)” value is “low polyreactivity”.

As for “QVQLVESGGGLVQAGGSLRLSCAASGSTFGSYAMGWYRQAAGKERELVAGNSWSGGRTYYADSVKGRFTISRDNAKNTVYLQMNSLKPEDTAVYYCARDTGYYYARYNYWGQGTQVTVSS”, the “polyreactivity (PSR sort gate)” value was “low polyreactivity”.
